Laboratory results reported in the RNAGym collection of RNA variant scans (doi:10.1073/pnas.2313332121).
This sample holds only a part of the variants without activity.

B1: TPR 5TU (parent)
chain: GGAUCUUCUCGAUCUAACAAAAAAGACAAAUCUGCCACAAAGCUUGAGAGCAUCUUCGGAUGCAGAGGCGGCAGCCUUCGGUGGCGCGAUAGCGCCAACGUUCUCAACUAUGACACGCAAAACGCGUGCUCCGUUGAAUGGAGUUUAUCAUG

Variants of: B1
Assay: polymerase ribozyme fitness, log enrichment relative to wild type (log ratio); higher = more active; in vitro selection for triplet polymerase activity
Procedure, shortened: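 After PCR construction and transcription, each subunit's mutant library from a heterodimeric triplet polymerase ribozyme was annealed with a biotinylated primer, the partner subunit and triplets. Incubation was frozen, at −7 °C, and extended constructs were gel-excised, bound to streptavidin beads and amplified by RT-PCR, in one selection round done in triplicate. Fitness is the logarithm of a genotype's enrichment divided by that of the wild type, from inverse-variance-weighted replicate averages of Illumina-sequenced inputs and outputs. The base of the logarithm is 2, and genotypes needed ≥10 input reads and ≥1 read per output.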

| Variant | polymerase ribozyme fitness (log ratio) |
| --- | --- |
| GGAUCUUCUCGAUCUAACAAAAAAGACAAAUCUUCCACAAAGCUUGAGAGCAUCUUCGGAUGCAGAGGCGGCAGCCUUCGGUGGCGCGAUAGCACCAACGUUCUCAACUAUGACACGCAAAACGCGUGCUCCGUUGAAUGGAGUUUAUCAUG [G34U G94A] | -2.37 |
| GGAUCUUCUCGAUCUAACAAAAAAGACAAAUCUGACACCAAGCUUGAGAGCAUCUUCGGAUGCAGAGGCGGCAGCCUUCGGUAGCGCGAUAGCGCCAACGUUCUCAACUAUGAAACACAAAAGGCGUGCUCCGUUGAAUUGAGUUUAUCAUG [C35A A39C G83A C114A G117A C123G G140U] | ≤ -4.2 |
| GGAUCUUCUCGAUCUAACAAAAAAGACAAAUCUGACACAAAGCUUGAGAGCAUGUUCGGAUGCAGAGGCGGAAGACUUCGGUGCCGCGAUAGCGCCAACGUUCUCAACUAUGAUACGCAAAACGCGUGCUCCUUUGAGUGGAGUUUAUCAUG [C35A C54G C72A C75A G84C C114U G133U A138G] | ≤ -4.2 |
| GGAUCUUCUCGAUCUAACAAAAAAGACAAAUCUGACACGAAGCUUGAGAGCAUCUUCGGAUGCAGAGGCGGCAGCCUUCGGUGGCGCGAUAGCGCCAACGUUCUCAACUAUGACACGCAAAACGCGUGCUCCGUUGAAUGUAGUUUAUCAUG [C35A A39G G141U] | ≤ -4.2 |
| GGAUCUUCUCGAUCUAACAAAAAAGACAAAUCUUCCACAAAGCUUGAGAGCAUCUUCGGAUGCAGAGGCGGCAGCCUUCGGUGGCGCGAUAGCGGCAACGUUCUCAACUAUGACGUGCAAAACGCGUGCUCCGUUGAAUCGAGUUUAUCAAG [G34U C95G A115G C116U G140C U151A] | -4.19 |
| GGAUCUUCUCGAUCUAACAAAAAAGACAAAUCUGACACAAAGCUUGAGAGCAUCUUCGGAUGCAGAGGCGGCAGCAUUCGGUGGCGCGAUAGAGCCAACGUUCUCAACUAUGACACGCAAAACGCGUGCUCCGUUGAAUGGAGUUUACCAUG [C35A C76A C93A U148C] | ≤ -4.2 |
| GGAUCUUCUCGAUCUAACAAAAAAGACAAAUCUGACACCAAGCUUGAGAGCAUCUUCGGAUGCAGAGGCGGCAGCCUUCGGUGGCGUGAUACCGCCAACGUUCUCAACUAUGACACGCAAAACGCGUGCUCCGUUGACUGGAGUUUGUCAUG [C35A A39C C87U G92C A138C A147G] | ≤ -4.2 |
| GGAUCUUCUCGAUCUAACAAAAAAGACAAAUCUUCCACAAAGCUUGAGAGCAUCUUCCGAUGCAGAGGUGGCAGCCUUCGGUGGCGCGAUGGCGCCAACGUUCUCAACUAUGACACGCAAAACGCGUACUCCGUCGAAUGGAGUUUAUCAUG [G34U G58C C69U A91G G128A U135C] | ≤ -4.2 |
| GGAUCUUCUCGAUCUAACAAAAAAGACAAAUCUGACGCAAAGCUUGAGAGCAUCUACGGAAGCAGAGGCGGCAGCCUUCGGUGGCGCGAUAGCGCCAACGUUCUCAACUAUGACACGCAAAACGCGUGCUCCGUUGAAUGGAGUUUAUCAUG [C35A A37G U56A U61A] | -3.7 |
| GGAUCUUCUCGAUCUAACAAAAAAGACAAAUCUUCCACAAAGCUUGAGAGCAUCUUCGGAUGCAGAAGCGGCAGCUUUCGGUGGAGCGAUAGCGCCAACGUUCUCAACUAUGACACGCAAAACGCGUGCUCCGUUGAAUGGAGUUUAUCAUG [G34U G67A C76U C85A] | ≤ -4.2 |
| GGAUCUUCUCGAUCUAACAAAAAAGACAAAUCUUCCACAAAGCUUGAGAGCAUCUUCAAAUGCAGAGGCGGCAGCCUUCGGUGGUGCGAUAGCGCCAACGGUCUCAACUAUGACACGCAAAACGCGUGCUCCGUUGAAUGGAGUUUAUCGUG [G34U G58A G59A C85U U101G A150G] | ≤ -4.2 |
| GGAUCUUCUCGAUCUAACAAAAAAGACAAAUCUGACACAAAGCUUGAGAGCAUCUUCGGAUGCAGAGGCGGCAGCUUUCGAUGGCGCGAUAGCGCUAACGUUAUCAACUAUGACACGCAAAACGCGUGCUCCGUUGAAUGGAGUUUAUCAUG [C35A C76U G81A C96U C103A] | ≤ -4.2 |
| GGAUCUUCUCGAUCUAACAAAAAAGACAAAUCUGACACAACGCUUGAGAGCAUCUUCGCAUGCAGAGGCGGCAGCCUUCGGUGGCGUGAUAGCGCCAACCUUCUGAACUAUGACACGCAACACGCGUGCUCCGUUGAAUGGAGUUUAUCAUG [C35A A41C G59C C87U G100C C105G A121C] | ≤ -4.2 |
| GGAUCUUCUCGAUCUAACAAAAAAGACAAAUCUUCCACAAAGCUUGAGAGCAUCUUCGGAUGCAGAGGCGGCAGCCUUGGGUGGCGCGAUAUGGCCAACGUUCUCAACAAUGACACGCAAAACGCGUGCUCCGUUGAAUGGACUUUAUCAUG [G34U C79G G92U C93G U109A G143C] | ≤ -4.2 |
| GGAUCUUCUCGAUCUAACAAAAAAGACAAAUCUGACACCAAGCUUGAGAGCAUCUUCGGAUGCAGAGGCGGCAGCCUUCGGUGGCGCGAUUGCGCCAACGUUCUCAACUAUGACACGCAAUACGCGUGCUCCGUUGAAUGGAGUUUAUCAUG [C35A A39C A91U A121U] | ≤ -4.2 |
| GGAUCUUCUCGAUCUAACAAAAAAGACAAAUCUGACACAAAGCUUGAGAGCCUCUUCGGAUGCAGAGGCGGCAGCCCUCGGUGGCGCGAUAGCGCCAACGUUCUCAACUAUGACACGCAAAACGCGUGCUCCGUUGAAUGGAGUUUCUCAUG [C35A A52C U77C A147C] | ≤ -4.2 |
| GGAUCUUCUCGAUCUAACAAAAAAGACAAAUCUGACACAAAGCUUGAGAGCCUCUUCGGAUGCAGAGGCGGCAGCCUUGGGUGGCGCGAUAGCGCUAACGUUCUCAACUAUGACACGCAAAACGCGCGCUCCGUUGAAUGGAGUUUAUAAUG [C35A A52C C79G C96U U127C C149A] | ≤ -4.2 |
| GGAUCUUCUCGAUCUAACAAAAAAGACAAAUCUUCCACAAAGCUUGAGAGCAUCUUCGGAUGCAGAGGCGGCAGCCUUCGGGGGCGCGAUAGCGCGAACGUUCUCGACUAUGACACGCAAAACGCGUGCUCCGUUGAAUGGAGUCUAUCAUG [G34U U82G C96G A106G U145C] | -3.75 |
| GGAUCUUCUCGAUCUAACAAAAAAGACAAAUCUUCCACAAAGCUUGAGAGCAUCUUCGGAUGCAGAGGCGGCAGCCGUCGGUGGCGAGAUAGCGCCAACGUUCUCAACUAUGCCACGCAAAACGCGUGCUCCGUUGAAUGGAGUUUAUCAUG [G34U U77G C87A A113C] | ≤ -4.2 |
